These results are taken from patent publication US20130052191A1 (Sanofi, published 2013).

B1: anti-VLA-2 IgG1-S298A/S324N (antibody)
heavy: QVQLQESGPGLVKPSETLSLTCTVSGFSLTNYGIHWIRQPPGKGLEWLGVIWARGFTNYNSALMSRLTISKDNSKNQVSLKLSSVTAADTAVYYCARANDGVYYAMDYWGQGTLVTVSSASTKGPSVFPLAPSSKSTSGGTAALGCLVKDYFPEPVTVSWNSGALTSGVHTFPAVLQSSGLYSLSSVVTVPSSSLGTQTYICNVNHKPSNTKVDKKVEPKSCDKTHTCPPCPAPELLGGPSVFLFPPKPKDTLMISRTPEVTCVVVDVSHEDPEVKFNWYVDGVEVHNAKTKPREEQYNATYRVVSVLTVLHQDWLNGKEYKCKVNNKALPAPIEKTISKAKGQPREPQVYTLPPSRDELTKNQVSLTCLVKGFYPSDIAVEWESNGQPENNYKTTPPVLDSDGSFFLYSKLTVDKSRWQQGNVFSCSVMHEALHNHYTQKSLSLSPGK
light: DFVMTQSPAFLSVTPGEKVTITCSAQSSVNYIHWYQQKPDQAPKKLIYDTSKLASGVPSRFSGSGSGTDYTFTISSLEAEDAATYYCQQWTTNPLTFGQGTKVEIKRTVAAPSVFIFPPSDEQLKSGTASVVCLLNNFYPREAKVQWKVDNALQSGNSQESVTEQDSKDSTYSLSSTLTLSKADYEKHKVYACEVTHQGLSSPVTKSFNRGEC
B2: anti-VLA-2 IgG1-S324N (antibody)
heavy: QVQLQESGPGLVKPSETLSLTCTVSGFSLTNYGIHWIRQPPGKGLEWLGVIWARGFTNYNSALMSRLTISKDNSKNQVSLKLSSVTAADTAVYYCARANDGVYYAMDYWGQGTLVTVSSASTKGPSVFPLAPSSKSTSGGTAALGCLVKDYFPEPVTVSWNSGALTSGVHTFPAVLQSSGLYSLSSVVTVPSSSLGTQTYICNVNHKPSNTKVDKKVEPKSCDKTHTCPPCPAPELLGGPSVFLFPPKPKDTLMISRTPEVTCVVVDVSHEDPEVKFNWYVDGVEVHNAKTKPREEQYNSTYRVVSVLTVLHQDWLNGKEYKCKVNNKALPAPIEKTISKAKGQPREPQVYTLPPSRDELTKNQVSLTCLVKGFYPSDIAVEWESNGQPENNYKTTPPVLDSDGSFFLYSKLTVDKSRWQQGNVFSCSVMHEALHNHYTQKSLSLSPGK
light: B1 light
B3: anti-VLA-2 IgG3 (antibody)
heavy: QVQLQESGPGLVKPSETLSLTCTVSGFSLTNYGIHWIRQPPGKGLEWLGVIWARGFTNYNSALMSRLTISKDNSKNQVSLKLSSVTAADTAVYYCARANDGVYYAMDYWGQGTLVTVSSASTKGPSVFPLAPCSRSTSGGTAALGCLVKDYFPEPVTVSWNSGALTSGVHTFPAVLQSSGLYSLSSVVTVPSSSLGTQTYTCNVNHKPSNTKVDKRVELKTPLGDTTHTCPRCPEPKSCDTPPPCPRCPEPKSCDTPPPCPRCPEPKSCDTPPPCPRCPAPELLGGPSVFLFPPKPKDTLMISRTPEVTCVVVDVSHEDPEVQFKWYVDGVEVHNAKTKPREEQYNSTFRVVSVLTVLHQDWLNGKEYKCKVSNKALPAPIEKTISKTKGQPREPQVYTLPPSREEMTKNQVSLTCLVKGFYPSDIAVEWESSGQPENNYNTTPPMLDSDGSFFLYSKLTVDKSRWQQGNIFSCSVMHEALHNRFTQKSLSLSPGK
light: B1 light
B4: anti-VLA-2 IgG1-E269D/S298A/S324N (antibody)
heavy: QVQLQESGPGLVKPSETLSLTCTVSGFSLTNYGIHWIRQPPGKGLEWLGVIWARGFTNYNSALMSRLTISKDNSKNQVSLKLSSVTAADTAVYYCARANDGVYYAMDYWGQGTLVTVSSASTKGPSVFPLAPSSKSTSGGTAALGCLVKDYFPEPVTVSWNSGALTSGVHTFPAVLQSSGLYSLSSVVTVPSSSLGTQTYICNVNHKPSNTKVDKKVEPKSCDKTHTCPPCPAPELLGGPSVFLFPPKPKDTLMISRTPEVTCVVVDVSHDDPEVKFNWYVDGVEVHNAKTKPREEQYNATYRVVSVLTVLHQDWLNGKEYKCKVNNKALPAPIEKTISKAKGQPREPQVYTLPPSRDELTKNQVSLTCLVKGFYPSDIAVEWESNGQPENNYKTTPPVLDSDGSFFLYSKLTVDKSRWQQGNVFSCSVMHEALHNHYTQKSLSLSPGK
light: B1 light
B5: anti-VLA-2 IgG-3133 (antibody)
heavy: QVQLQESGPGLVKPSETLSLTCTVSGFSLTNYGIHWIRQPPGKGLEWLGVIWARGFTNYNSALMSRLTISKDNSKNQVSLKLSSVTAADTAVYYCARANDGVYYAMDYWGQGTLVTVSSASTKGPSVFPLAPCSRSTSGGTAALGCLVKDYFPEPVTVSWNSGALTSGVHTFPAVLQSSGLYSLSSVVTVPSSSLGTQTYTCNVNHKPSNTKVDKRVEPKSCDKTHTCPPCPAPELLGGPSVFLFPPKPKDTLMISRTPEVTCVVVDVSHEDPEVQFKWYVDGVEVHNAKTKPREEQYNSTFRVVSVLTVLHQDWLNGKEYKCKVSNKALPAPIEKTISKTKGQPREPQVYTLPPSREEMTKNQVSLTCLVKGFYPSDIAVEWESSGQPENNYNTTPPMLDSDGSFFLYSKLTVDKSRWQQGNIFSCSVMHEALHNRFTQKSLSLSPGK
light: B1 light
B6: anti-VLA-2 IgG-1133 (antibody)
heavy: B5 heavy with C133S, R135K, T201I, R216K
light: B1 light
B7: anti-VLA-2 IgG1-S298A (antibody)
heavy: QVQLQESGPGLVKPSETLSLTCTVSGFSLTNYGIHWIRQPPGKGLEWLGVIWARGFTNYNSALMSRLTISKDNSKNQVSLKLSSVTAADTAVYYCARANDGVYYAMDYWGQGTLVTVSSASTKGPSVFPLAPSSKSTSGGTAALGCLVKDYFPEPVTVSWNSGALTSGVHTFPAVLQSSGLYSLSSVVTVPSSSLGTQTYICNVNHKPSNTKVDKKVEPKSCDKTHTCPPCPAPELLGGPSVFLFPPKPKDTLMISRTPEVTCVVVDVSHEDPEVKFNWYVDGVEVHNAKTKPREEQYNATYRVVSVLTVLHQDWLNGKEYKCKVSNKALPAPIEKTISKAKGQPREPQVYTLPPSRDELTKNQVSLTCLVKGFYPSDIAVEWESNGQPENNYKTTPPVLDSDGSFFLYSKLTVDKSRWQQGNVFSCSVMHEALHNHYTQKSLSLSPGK
light: B1 light
B8: anti-VLA-2 IgG1 (antibody)
heavy: not shown
light: B1 light
B9: anti-VLA-2 IgG1-E269D (antibody)
heavy: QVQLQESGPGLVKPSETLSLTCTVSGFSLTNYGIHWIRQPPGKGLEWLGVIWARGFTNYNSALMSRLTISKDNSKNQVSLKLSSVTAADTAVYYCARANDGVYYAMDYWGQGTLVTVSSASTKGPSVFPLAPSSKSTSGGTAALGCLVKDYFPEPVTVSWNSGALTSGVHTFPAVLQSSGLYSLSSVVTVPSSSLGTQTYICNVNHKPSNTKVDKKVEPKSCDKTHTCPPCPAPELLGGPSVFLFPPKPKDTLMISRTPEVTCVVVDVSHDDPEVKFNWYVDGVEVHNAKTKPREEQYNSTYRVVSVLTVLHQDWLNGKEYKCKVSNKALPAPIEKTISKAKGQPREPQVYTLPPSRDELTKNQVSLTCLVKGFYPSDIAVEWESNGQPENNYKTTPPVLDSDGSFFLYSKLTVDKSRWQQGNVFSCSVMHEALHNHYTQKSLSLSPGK
light: B1 light

Changes are numbered by the printed parent chain. Numbers in names are those of the source.

α2β1 integrin (VLA-2) on HT1080 cells, sequence (P17301 30-1181, chain 1 of 2): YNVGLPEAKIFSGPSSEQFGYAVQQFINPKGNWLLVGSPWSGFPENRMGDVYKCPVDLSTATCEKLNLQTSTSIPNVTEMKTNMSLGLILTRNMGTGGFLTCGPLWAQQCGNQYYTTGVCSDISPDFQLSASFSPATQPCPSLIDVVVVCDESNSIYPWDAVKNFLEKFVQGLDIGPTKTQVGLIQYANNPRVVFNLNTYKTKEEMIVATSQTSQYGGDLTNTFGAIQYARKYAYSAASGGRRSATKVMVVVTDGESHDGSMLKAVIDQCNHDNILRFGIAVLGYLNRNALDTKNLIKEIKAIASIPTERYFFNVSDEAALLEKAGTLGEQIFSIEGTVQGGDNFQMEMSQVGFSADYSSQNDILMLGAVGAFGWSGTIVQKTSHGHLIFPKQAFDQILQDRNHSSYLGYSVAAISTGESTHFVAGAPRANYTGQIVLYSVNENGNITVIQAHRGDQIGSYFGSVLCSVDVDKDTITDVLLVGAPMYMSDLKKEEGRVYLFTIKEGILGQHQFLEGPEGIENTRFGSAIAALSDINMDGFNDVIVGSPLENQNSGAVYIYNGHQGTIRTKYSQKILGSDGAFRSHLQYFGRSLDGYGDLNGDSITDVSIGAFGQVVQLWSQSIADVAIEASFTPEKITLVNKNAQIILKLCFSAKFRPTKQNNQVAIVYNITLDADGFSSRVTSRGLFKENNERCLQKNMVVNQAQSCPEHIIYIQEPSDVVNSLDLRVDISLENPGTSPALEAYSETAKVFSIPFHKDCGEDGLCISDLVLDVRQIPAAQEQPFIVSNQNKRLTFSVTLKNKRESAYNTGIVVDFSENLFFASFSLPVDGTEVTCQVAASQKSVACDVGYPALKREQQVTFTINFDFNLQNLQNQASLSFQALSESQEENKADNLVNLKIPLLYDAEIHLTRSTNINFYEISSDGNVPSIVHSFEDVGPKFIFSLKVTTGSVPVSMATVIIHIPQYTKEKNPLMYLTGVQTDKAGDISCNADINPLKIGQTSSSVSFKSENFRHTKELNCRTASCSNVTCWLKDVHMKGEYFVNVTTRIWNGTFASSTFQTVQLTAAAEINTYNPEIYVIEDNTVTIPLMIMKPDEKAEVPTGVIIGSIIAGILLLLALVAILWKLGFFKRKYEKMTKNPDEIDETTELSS
α2β1 integrin (VLA-2) on HT1080 cells, sequence (P05556 21-798, chain 2 of 2): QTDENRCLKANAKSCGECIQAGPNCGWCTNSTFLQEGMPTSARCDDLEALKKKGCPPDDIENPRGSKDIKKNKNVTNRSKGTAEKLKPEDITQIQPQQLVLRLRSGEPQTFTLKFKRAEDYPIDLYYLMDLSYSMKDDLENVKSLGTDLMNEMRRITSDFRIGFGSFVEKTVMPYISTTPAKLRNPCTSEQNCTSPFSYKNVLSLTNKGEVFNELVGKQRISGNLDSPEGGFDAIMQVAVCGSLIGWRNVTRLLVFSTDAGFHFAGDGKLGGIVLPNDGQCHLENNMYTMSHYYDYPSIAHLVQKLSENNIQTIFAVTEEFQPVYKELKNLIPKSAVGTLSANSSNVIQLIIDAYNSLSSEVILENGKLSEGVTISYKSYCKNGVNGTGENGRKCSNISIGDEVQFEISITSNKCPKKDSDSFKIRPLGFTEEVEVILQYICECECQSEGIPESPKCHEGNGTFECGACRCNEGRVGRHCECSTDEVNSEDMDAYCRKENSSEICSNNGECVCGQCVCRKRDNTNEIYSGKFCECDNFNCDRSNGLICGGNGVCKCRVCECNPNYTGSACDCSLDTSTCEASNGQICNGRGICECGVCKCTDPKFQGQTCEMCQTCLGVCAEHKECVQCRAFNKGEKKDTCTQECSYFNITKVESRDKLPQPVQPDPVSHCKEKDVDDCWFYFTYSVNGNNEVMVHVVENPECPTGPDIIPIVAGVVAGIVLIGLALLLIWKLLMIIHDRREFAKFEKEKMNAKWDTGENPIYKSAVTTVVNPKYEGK

One test concerns the target complement component C1q (in baby rabbit complement) (rabbit). The test can be described thus: cell-based or functional assay.
With B1, the “CDC fold increase (LDH release, HT1080 cells, baby rabbit complement, antibody 1 µg/ml)” value was at least 6.6 fold.
Turning to B2, the “CDC fold increase (LDH release, HT1080 cells, baby rabbit complement, antibody 1 µg/ml)” value was at least 6.4 fold.
For B3, the “CDC fold increase over the parental anti-VLA-2 IgG4 antibody (LDH release, HT1080 cells, baby rabbit complement, antibody 1 µg/ml)” value was at least 9.6 fold.
Turning to B4, the “CDC fold increase (LDH release, HT1080 cells, baby rabbit complement, antibody 1 µg/ml)” value was at least 9 fold.
The same measure, in the same setting: under B5 stands at least 8.6 fold; under B6, at least 5.6 fold.

A further test has as its target α2β1 integrin (VLA-2) on HT1080 cells (UniProt P17301 30-1181; P05556 21-798). The test can be described thus: cell-based or functional assay.
Turning to B1, the “ADCC fold increase (LDH release, HT1080 target cells with human PBMC, antibody 0.1 µg/ml)” value (“ADCC fold increase” below) came to 2 fold.
Consider B7, for which the “ADCC fold increase” value was 1.8 fold.
Still for that read-out and setting: next, B8: 1.7 fold; B9: 1.5 fold.
Regarding B4, the “ADCC fold increase” value was determined as 1.7 fold.
